This note sets out measurements from patent US8772012B2, “Xylose isomerase and use thereof” (Kabushiki Kaisha Toyota Chuo Kenkyusho, priority 2009, dated 2014).

Values joined by “and” are separate entries in the source; they are usually repeats but may differ in a detail not shown here. Equal values may be shown once.

In the data set the test system is OC1OC[C@@H](O)[C@H](O)[C@H]1O. The data set can be described thus: cells, lysate or membranes named. The note with it: other: xylose 5 to 250 mM, pH 7.5, 30° C., 10 mM MgCl2, crude yeast extract, Hanes-Woolf plot.

Turning to “Piromyces sp. E2 xylose isomerase PiXI-O (PiXI; codon optimized gene PiXI-O, SEQ ID NO: 46), expressed in yeast (Piromyces sp. E2)”, the Km is 40 mM and 39.87 ± 7.43 mM.
